Non-standard residues stand in square brackets, D forms with d. No end group written: not given here. *: point of attachment. βGlc = OC[C@H]1O[C@@H](*)[C@H](O)[C@@H](O)[C@@H]1O; Tyr(3,5-I2) = N[C@@H](Cc1cc(I)c(O)c(I)c1)C(=O)O; Dap = NC[C@H](N)C(=O)O
Tests used:
ObR extracellular domain = target: T1, ObR extracellular domain (Homo sapiens, UniProt P48357); assay: Dot-blot and ELISA-type solid-phase binding assay; conditions: dot-blot, Western-blot or ELISA; 10 and 20 μg peptide load in ELISA
T1 construct: human IgG Fc-conjugated ObR extracellular domain (R&D Systems); purchased R&D Systems
T1 sequence (P48357 22-839 limits assumed): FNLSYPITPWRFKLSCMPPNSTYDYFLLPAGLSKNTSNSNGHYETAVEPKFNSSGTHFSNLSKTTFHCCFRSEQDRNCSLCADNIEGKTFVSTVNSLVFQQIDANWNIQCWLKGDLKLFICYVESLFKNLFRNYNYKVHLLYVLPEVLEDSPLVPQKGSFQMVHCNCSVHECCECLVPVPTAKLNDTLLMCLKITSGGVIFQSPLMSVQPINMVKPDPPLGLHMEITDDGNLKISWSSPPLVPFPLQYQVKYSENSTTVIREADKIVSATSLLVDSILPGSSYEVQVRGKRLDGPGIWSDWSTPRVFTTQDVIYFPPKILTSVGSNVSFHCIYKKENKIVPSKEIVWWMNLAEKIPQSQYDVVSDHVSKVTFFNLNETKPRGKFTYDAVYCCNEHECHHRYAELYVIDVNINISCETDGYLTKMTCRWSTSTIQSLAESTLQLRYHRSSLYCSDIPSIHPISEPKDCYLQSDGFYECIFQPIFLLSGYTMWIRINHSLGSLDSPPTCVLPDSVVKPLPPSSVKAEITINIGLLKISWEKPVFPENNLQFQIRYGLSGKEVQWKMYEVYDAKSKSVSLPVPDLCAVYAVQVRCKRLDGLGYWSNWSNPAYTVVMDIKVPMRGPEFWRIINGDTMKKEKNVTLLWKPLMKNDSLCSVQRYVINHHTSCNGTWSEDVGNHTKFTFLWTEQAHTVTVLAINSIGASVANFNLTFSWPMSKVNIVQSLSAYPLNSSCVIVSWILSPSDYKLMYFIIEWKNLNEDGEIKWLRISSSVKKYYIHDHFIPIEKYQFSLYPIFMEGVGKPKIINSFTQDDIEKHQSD
Description: For dot-blot and ELISA assays, the leptin fragments were dissolved in electroblot transfer buffer (25 mM Tris and […] buffer containing 20% methanol) and were applied to either a nitrocellulose membrane or dried upon ELISA plates (Otvos, L., Jr., and Szendrei, G. I. (1996) Enzyme-linked immunosorbent assay of peptides. In: Neuropeptide Protocols (G. B. Irvine and C. H. Williams, eds.). Humana Press, Totowa, N.J., pp. 269-275). The solid surfaces were blocked with 5% BSA in a PBS-0.5% Tween 20 buffer (PBST) for 3 hours at room temperature and were subsequently incubated with 10 μg/mL solution of human IgG Fc-conjugated ObR extracellular domain (R&D Systems) dissolved in Tris-buffered saline-0.1% Tween 20 buffer (TBST) containing 1% bovine serum albumin (BSA) for 1 hour. A monoclonal goat antibody (Santa Cruz Biotechnology), specific for the N-terminus of human ObR, was added to the assay mixture, followed by addition of a horseradish peroxidase(HRP)-conjugated anti-goat IgG donkey antibody for the dot-blot assay, and HRP-conjugated anti-goat Fc mouse antibody for ELISA assay (used at a 1:15,000 dilution in PBST and 1% BSA). Between reagents, the solid surfaces were washed extensively with PBST. After washing with PBST, the membrane was treated with a chemiluminescence luminol oxidizer (NEN) for 1 min. The resultant chemiluminescence was exposed to a X-Omat blue XB-1 film (Kodak) for 10 seconds, and the exposed film was developed. The ELISA was developed using an HRP ELISA kit including tetramethylbenzidine as a substrate and sulfuric acid as a stop solution. Optical absorbance values were read at 490 nm using a microplate reader.

[1] = In vivo biodistribution of DY675-labeled peptide by fluorescence imaging; conditions: intraperitoneal, female Balb/c mice, up to 65 minutes
Description: E1Free peptide was co-synthesized with the near-infrared absorbing fluorescent dye DY675 and the resultant labeled peptide was purified by RP-HPLC. Forty microgams of the peptide was injected intraperiotoneally into shaved and isoflurane anesthesized female Balb/c mice. For imaging of the biodistribution of the peptide, the animals were placed into a fluorescence microscope chamber under continuous isoflurane exposure. Fluorescence exposure pictures were taken with an IVIS microscope set to a 695 nm emission wavelength. Images were obtained once a minute for the first ten minutes after peptide addition and every five minutes afterwards, until a 65 minute stop point was reached.

[2] = test system: ovariectomised (OVX) ewes; assay: Voluntary food intake in animals with icv infusion; type: in vivo
Description: This experiment was conducted using ovariectomised (OVX) ewes (n=4/group: 55 kg). Ovariectomy removes cyclic effects of ovarian steroids, which affect sensitivity to leptin. The experiments were performed in an isolated room with an ambient temperature range of 17-22° C. […] peptide was administered to animals by way of Silastic cannulae introduced into the lateral cerebral ventricle (H8) for intracerebroventricular (icv) infusion. For infusion, pyrogen-free leptin peptide was dissolved in 0.1 mM HCl and diluted in artificial cerebrospinal fluid (aCSF) to a concentration of 10 μg/100 μl. All infusions were initiated at 0900 hours and control animals received an infusion of aCSF 100 μl/hour.

Tyr(I2)-Serβ(Glc)-Thr-Glu-Va1-Va1-Ala-Leu-Ser-Arg-Leu-Dap(Ac) ([Tyr(3,5-I2)]S(βGlc)TEVVALSRL[Dap](Ac)-NH2) [E1Free]
binding to the extracellular domain of ObR (ObR extracellular domain): bound
biodistribution [1]: localizes in the head, as well as the kidneys and liver
reduction of voluntary food intake compared to controls (aCSF) ([2]; 10 μg/hour for 7 hours icv, program-fed OVX ewes, P<0.05): approx. 25%
effect on voluntary food intake ([2]; icv infusion, OVX ewes, over the course of two days): voluntarily reduce the amount of food taken in

Source: patent US8470772B2, “Leptin agonist and methods of use” (Temple University—Of The Commonwealth System of Higher …, priority 2008, dated 2013)
